The target of the test is EPHA2 (human (endogenous in HSC-4)) (UniProt P29317). Put plainly: proximity ligation.
UniProt P29317, sequence (P29317 24-976): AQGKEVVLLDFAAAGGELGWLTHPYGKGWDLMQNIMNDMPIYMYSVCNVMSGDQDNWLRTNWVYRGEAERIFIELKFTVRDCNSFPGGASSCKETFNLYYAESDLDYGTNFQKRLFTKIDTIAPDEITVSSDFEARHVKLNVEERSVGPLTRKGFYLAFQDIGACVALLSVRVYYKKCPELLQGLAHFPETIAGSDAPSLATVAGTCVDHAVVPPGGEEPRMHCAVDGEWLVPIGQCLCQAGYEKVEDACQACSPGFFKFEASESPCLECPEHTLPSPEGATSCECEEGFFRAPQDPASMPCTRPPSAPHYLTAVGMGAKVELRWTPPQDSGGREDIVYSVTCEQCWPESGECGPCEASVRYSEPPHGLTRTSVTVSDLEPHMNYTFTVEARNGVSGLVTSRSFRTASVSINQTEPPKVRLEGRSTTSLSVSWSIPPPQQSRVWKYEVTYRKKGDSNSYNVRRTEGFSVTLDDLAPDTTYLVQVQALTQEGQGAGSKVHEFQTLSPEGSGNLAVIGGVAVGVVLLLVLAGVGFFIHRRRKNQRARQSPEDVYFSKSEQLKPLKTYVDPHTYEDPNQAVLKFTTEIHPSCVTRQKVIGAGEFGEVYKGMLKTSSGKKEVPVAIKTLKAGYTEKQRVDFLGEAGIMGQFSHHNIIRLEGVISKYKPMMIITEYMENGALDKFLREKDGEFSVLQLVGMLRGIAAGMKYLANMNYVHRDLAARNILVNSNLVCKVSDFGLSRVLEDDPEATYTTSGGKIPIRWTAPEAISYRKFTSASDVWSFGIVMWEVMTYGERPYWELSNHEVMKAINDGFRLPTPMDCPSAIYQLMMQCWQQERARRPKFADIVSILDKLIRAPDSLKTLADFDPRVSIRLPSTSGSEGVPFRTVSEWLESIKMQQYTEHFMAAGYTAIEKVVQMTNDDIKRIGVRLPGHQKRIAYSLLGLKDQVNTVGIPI

Regarding “Ephrin-B1 phosphorylated at Y324/329 (ligand)”, the PLA foci per cell (foci per cell) amounted to 2.

The values above are taken from doi:10.1101/2025.01.03.631197.
